Measurements taken from article PMC9482650, “Quantitative fragmentomics allow affinity mapping of interactomes” (Nature Communications, 2022).

T1: TX1BP3, O14907
T1 sequence (O14907 10-122, limits assumed, looked up): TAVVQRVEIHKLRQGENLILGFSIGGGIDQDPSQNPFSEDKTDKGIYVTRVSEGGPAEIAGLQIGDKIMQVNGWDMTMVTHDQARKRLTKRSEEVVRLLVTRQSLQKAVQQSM

T2: SYNJ2BP, P57105
T2 sequence (P57105 8-110, limits assumed, looked up): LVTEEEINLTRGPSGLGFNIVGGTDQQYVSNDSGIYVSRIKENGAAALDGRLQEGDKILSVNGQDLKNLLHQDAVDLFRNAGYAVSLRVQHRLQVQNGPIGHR

T3: LRRC7, Q96NW7
T3 sequence (Q96NW7 1440-1537, limits assumed, looked up): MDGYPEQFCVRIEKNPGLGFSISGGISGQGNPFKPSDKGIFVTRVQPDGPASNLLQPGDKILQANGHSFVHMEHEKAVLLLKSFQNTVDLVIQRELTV

T4: NHERF3_4, Q5T2W1
T4 sequence (Q5T2W1 373-468, limits assumed, looked up): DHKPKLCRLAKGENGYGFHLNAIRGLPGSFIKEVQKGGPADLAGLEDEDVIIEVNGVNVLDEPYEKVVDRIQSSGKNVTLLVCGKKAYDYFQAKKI

T5: MPP7, Q5T2T1
T5 sequence (Q5T2T1 134-230, limits assumed, looked up): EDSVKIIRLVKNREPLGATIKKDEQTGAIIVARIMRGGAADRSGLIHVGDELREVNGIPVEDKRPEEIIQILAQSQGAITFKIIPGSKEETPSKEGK

T6: RHPN1, Q8TCX5
T6 sequence (Q8TCX5 508-602, limits assumed, looked up): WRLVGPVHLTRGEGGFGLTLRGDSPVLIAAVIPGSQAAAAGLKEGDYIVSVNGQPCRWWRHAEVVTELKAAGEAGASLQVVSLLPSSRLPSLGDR

T7: DLG3_1, Q92796
T7 sequence (Q92796 125-227, limits assumed, looked up): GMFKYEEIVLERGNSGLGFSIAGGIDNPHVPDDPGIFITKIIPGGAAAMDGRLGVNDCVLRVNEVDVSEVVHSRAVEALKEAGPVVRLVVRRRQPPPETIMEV

T8: DVL3, Q92997
T8 sequence (Q92997 244-331, limits assumed, looked up): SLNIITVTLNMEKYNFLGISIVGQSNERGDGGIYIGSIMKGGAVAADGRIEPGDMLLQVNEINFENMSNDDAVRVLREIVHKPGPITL

T9: GRIP1_7, Q9Y3R0
T9 sequence (Q9Y3R0 999-1096, limits assumed, looked up): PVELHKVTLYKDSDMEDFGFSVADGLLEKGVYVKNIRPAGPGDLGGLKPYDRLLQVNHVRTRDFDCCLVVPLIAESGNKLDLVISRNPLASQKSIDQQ

T10: NHERF3_3, Q5T2W1
T10 sequence (Q5T2W1 238-333, limits assumed, looked up): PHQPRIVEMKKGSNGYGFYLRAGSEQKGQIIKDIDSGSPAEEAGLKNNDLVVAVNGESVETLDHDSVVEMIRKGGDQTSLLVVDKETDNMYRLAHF

T11: GRIP1_3, Q9Y3R0
T11 sequence (Q9Y3R0 247-346, limits assumed, looked up): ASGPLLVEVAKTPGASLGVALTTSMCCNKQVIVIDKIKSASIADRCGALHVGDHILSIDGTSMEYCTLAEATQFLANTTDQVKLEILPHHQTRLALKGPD

T12: SNTA1, Q13424
T12 sequence (Q13424 82-180, limits assumed, looked up): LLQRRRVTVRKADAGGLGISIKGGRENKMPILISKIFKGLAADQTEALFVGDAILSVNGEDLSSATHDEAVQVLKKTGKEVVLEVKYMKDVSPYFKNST

T13: PCLO, Q9Y6V0
T13 sequence (Q9Y6V0 4491-4600, limits assumed, looked up): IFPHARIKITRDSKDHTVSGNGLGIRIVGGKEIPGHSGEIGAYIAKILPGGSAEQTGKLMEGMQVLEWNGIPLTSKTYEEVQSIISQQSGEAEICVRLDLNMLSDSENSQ


What was measured:
Experiment in all cases: holdup assay
Set-up in all cases: key: below the threshold = too weak to quantify, mostly under pKd 3.1 to 4
Conditions in all cases: plain residues with an end cap or a label only (N-terminal biotin on a linker: ado-ado)
TX1BP3, O14907 = target: T1, TX1BP3, O14907
SYNJ2BP, P57105 = target: T2, SYNJ2BP, P57105
LRRC7, Q96NW7 = target: T3, LRRC7, Q96NW7
GRID2IP_2, A4D2P6 = target: GRID2IP_2, A4D2P6
Sequence of GRID2IP_2, A4D2P6 (A4D2P6 272-370): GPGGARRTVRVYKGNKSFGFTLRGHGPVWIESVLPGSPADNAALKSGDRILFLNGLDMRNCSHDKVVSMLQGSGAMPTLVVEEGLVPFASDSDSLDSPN

NHERF3_4, Q5T2W1 = target: T4, NHERF3_4, Q5T2W1
MAST1, Q9Y2H9 = target: MAST1, Q9Y2H9
Sequence of MAST1, Q9Y2H9 (Q9Y2H9 962-1065): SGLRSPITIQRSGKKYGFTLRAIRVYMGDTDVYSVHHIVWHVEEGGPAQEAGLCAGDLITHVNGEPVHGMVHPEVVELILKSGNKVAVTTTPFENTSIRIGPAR

MPP7, Q5T2T1 = target: T5, MPP7, Q5T2T1
RHPN1, Q8TCX5 = target: T6, RHPN1, Q8TCX5
DLG3_1, Q92796 = target: T7, DLG3_1, Q92796
DVL3, Q92997 = target: T8, DVL3, Q92997
GRIP1_7, Q9Y3R0 = target: T9, GRIP1_7, Q9Y3R0
DLG2_3, Q15700 = target: DLG2_3, Q15700
GRIP2_7, Q9C0E4 = target: GRIP2_7, Q9C0E4
Sequence of GRIP2_7, Q9C0E4 (Q9C0E4 934-1023): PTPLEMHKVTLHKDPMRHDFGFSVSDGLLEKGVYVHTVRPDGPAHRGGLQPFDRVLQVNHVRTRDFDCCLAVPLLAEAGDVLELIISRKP

DLG1_3, Q12959 = target: DLG1_3, Q12959
Sequence of DLG1_3, Q12959 (Q12959 457-571): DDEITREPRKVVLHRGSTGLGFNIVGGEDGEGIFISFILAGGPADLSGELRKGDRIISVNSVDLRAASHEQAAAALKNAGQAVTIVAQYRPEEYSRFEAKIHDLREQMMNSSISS

NHERF3_3, Q5T2W1 = target: T10, NHERF3_3, Q5T2W1
GRIP1_3, Q9Y3R0 = target: T11, GRIP1_3, Q9Y3R0
SNTA1, Q13424 = target: T12, SNTA1, Q13424
LIMK2, P53671 = target: LIMK2, P53671
Sequence of LIMK2, P53671 (P53671 143-248): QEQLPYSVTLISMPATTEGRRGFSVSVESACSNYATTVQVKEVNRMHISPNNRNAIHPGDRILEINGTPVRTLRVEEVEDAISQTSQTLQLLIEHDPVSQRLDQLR

PCLO, Q9Y6V0 = target: T13, PCLO, Q9Y6V0
HTRA1, Q92743 = target: HTRA1, Q92743
Sequence of HTRA1, Q92743 (Q92743 360-477): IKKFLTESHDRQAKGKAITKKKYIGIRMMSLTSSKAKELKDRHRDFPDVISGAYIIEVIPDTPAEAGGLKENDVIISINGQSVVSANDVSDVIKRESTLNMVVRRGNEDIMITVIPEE

Inadl_5, Q8NI35 = target: Inadl_5, Q8NI35
Sequence of Inadl_5, Q8NI35 (Q8NI35 673-780): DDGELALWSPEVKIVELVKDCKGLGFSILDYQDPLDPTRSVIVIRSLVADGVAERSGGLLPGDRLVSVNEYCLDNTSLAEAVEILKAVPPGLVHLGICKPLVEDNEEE

MAGI2_4, Q86UL8 = target: MAGI2_4, Q86UL8
Sequence of MAGI2_4, Q86UL8 (Q86UL8 772-865): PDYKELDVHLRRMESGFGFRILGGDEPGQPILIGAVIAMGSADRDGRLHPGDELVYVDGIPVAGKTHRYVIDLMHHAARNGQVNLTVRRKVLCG

PDZRN4_1, Q6ZMN7 = target: PDZRN4_1, Q6ZMN7
Sequence of PDZRN4_1, Q6ZMN7 (Q6ZMN7 213-318): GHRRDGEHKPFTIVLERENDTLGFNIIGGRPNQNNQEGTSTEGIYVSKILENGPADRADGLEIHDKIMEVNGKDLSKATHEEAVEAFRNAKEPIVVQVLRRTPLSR

Binder | pKd (TX1BP3, O14907) | pKd (SYNJ2BP, P57105) | pKd (LRRC7, Q96NW7) | pKd (GRID2IP_2, A4D2P6) | pKd (NHERF3_4, Q5T2W1) | pKd (MAST1, Q9Y2H9) | pKd (MPP7, Q5T2T1) | pKd (RHPN1, Q8TCX5) | pKd (DLG3_1, Q92796) | pKd (DVL3, Q92997) | pKd (GRIP1_7, Q9Y3R0) | pKd (DLG2_3, Q15700) | pKd (GRIP2_7, Q9C0E4) | pKd (DLG1_3, Q12959) | pKd (NHERF3_3, Q5T2W1) | pKd (GRIP1_3, Q9Y3R0) | pKd (SNTA1, Q13424) | pKd (LIMK2, P53671) | pKd (PCLO, Q9Y6V0) | pKd (HTRA1, Q92743) | also measured
THREVKFTSL [CD46, P15529] | 4.37 | 4.59 | below the threshold | 4.95 | 4.6 | 4.81 | below the threshold | 4.48 | below the threshold | below the threshold | below the threshold | 4.38 | below the threshold | 3.75 | below the threshold | below the threshold | 4.17 | below the threshold | below the threshold | 3.89 | pKd (Inadl_5, Q8NI35): below the threshold; pKd (MAGI2_4, Q86UL8): below the threshold; pKd (PDZRN4_1, Q6ZMN7): 4.57
QKNKDREYYV [NRXN3, Q9HDB5] | below the threshold | below the threshold | below the threshold | 3.52 | below the threshold | below the threshold | 4.92 | below the threshold | below the threshold | 4.02 | 4.62 | below the threshold | 4.89 | below the threshold | below the threshold | below the threshold | 3.8 | below the threshold | below the threshold | 5.49 | pKd (Inadl_5, Q8NI35): 4.64; pKd (MAGI2_4, Q86UL8): 3.8; pKd (PDZRN4_1, Q6ZMN7): below the threshold
KAEEKPPSKV [SCN4B, Q8IWT1] | below the threshold | below the threshold | below the threshold | below the threshold | below the threshold | 3.69 | below the threshold | below the threshold | below the threshold | below the threshold | below the threshold | below the threshold | below the threshold | below the threshold | below the threshold | below the threshold | below the threshold | below the threshold | below the threshold | below the threshold | pKd (Inadl_5, Q8NI35): below the threshold; pKd (MAGI2_4, Q86UL8): below the threshold; pKd (PDZRN4_1, Q6ZMN7): below the threshold
HDDYFYHDEL [RCN2, Q14257] | 3.9 | below the threshold | below the threshold | below the threshold | below the threshold | 4.35 | below the threshold | below the threshold | below the threshold | below the threshold | below the threshold | below the threshold | below the threshold | below the threshold | below the threshold | below the threshold | 3.6 | below the threshold | below the threshold | 3.98 | pKd (Inadl_5, Q8NI35): below the threshold; pKd (MAGI2_4, Q86UL8): below the threshold; pKd (PDZRN4_1, Q6ZMN7): below the threshold
KKTPVSRSHL [SLC22A3, O75751] | 3.53 | below the threshold | below the threshold | 5.18 | below the threshold | below the threshold | below the threshold | below the threshold | below the threshold | below the threshold | below the threshold | below the threshold | below the threshold | below the threshold | below the threshold | below the threshold | 3.53 | below the threshold | below the threshold | 3.61 | pKd (Inadl_5, Q8NI35): below the threshold; pKd (MAGI2_4, Q86UL8): below the threshold; pKd (PDZRN4_1, Q6ZMN7): 3.66
LPPPESESKV [KCNJ9, Q92806] | below the threshold | 4.02 | below the threshold | below the threshold | below the threshold | 4.29 | below the threshold | 4.44 | below the threshold | below the threshold | below the threshold | 3.7 | below the threshold | below the threshold | below the threshold | below the threshold | 3.99 | below the threshold | below the threshold | below the threshold | pKd (Inadl_5, Q8NI35): below the threshold; pKd (MAGI2_4, Q86UL8): below the threshold; pKd (PDZRN4_1, Q6ZMN7): below the threshold
